In the DeepSol protein solubility set:

Assay: soluble on expression in E. coli; label from the status in PepcDB or PDB records

Row | Sequence | soluble on expression in E. coli
1 | MGSDKIHHHHHHMTDIATYNFAYLDEQTKRMIRRAILKGIAIPGYQVPFASREMPMPYGWGTGGVQVTASIIGPDDVLKVIDQGADDTTNAVSIRAFFKKVANVAVTTNTASATIIQTRHRIPEHPLTAGQVLVYQVPIPEPLRFLEPRETETRKMHALEEYGLMHVKLYEDIAKHGRIATTYAYPVKVEGRYVMDPSPTPKFDNPKMHRSPALQLFGAGREKRIYAVPPFTDVVSLDFEDHPFEVQTFDQPCALCAAENVYLDEVILDDHGGHMFVCSDTDHCEKRREEGHRGHLAPETHLGSEKMEPAQ | not soluble
2 | MSLKSHRYMEVSFTKYRINLKYSFGISRSSNNYYDVAFVFIKDKGIIGRGEAAPSKRYGESIDYIIKLLESGISLPKNSYDKESVWKHVKPQLGGIKSLEAAFNMAIWDWWGQKQKKPVYELLNIKVNNLPKTSFTIAIGNMNEIERKIEEAKPYSILKVKLGTPKNDKKIITEIRKLTDKLIRVDANEGWDLDMAIKMSKWLADRNVEFIEQPFPASKIDQTSILKKKSPLDIFADENSINSNDIPSLEGVFDGINIKLMKCGSIEEGYKMIKLAREFDLKIMLGCMVESSIEGHHHHHH | soluble
3 | QTKIYESYKLPDYLKDKIKNNNHAEMDENDLDNKIFYKPNVAAHSQFIDYKYNGNHSVEIKFETDAIEVYEIRPVSIATITHVTIPNDCASNNSNSNECVLIIHVWNNSKFVGSNFSCSIACTNKETDQLASHINPIAPVRAFIGPNKNYAFYFIIKFLINKEITTLCKAIVKDSNGKECSIEEFELQSKESVHIVESEVDETTDQVVVEHHTQSPDIKNPDEYVCKCTINLLCYV | soluble
4 | TAVSLEQLLIAREQRVALQQQCLHEYQQTLLSLTLTAVGPVKKNALLDYVFAKALANITACFNKLSVTATAQFIRPLQTGHEALFVLPIDAKILKRAMIELENSSPLARLWDIDVISQEGHYSRGEFGFAERTCLMCAESAKICARSRRHSIDDLLSEIHTRAQQ | not soluble
5 | MSLLSGGLSLNDKSWQALVFDYTNDGMGWPIGALASAEQILLAMSAQLVDTDFELSLLLPEGEGEEALFELADAVAEWINHFISGLGLSGANLKHASVEAKEALEDLEEMSKLGIDEEDDLAEQAELLEQVIEHIKVCVLVLHAEFGVKPEQDTKPTVHEGGSHHHHHH | soluble
6 | MGHHHHHHSHMSSSAGSGHQPSQSRAIPTRTVAISDAAQLPHDYCTTPGGTLFSTTPGGTRIIYDRKFLLDRRNSPMAQTPPCHLPNIPGVTSPGTLIEDSKVEVNNLNNLNNHDRKHAVGDDAQFEMDI | soluble
7 | MKASIKGKYDTDKTSGIGSLAFNAGDIKLRATMTDATLVAGPTLTGLALAVEKPGSFIVEYNVPKKDVRFQFMNTVRIAEKPLNLTYIHSRADNRTIVDGSLVIDSANKLSANHMVGTNNCKIKYTYAHGGLATFEPCYDLAKNTWDFAVSRRFYSGDNVRATYQTSSKLLGMEWSRNNKASGFKVCASVNLADELKTPKLTAETTWNLEM | soluble
8 | MSYYHHHHHHLESTSLYKKAGLQALLLEQQDGKTLASVQTLDESRLPEGDVTVDVHWSSLNYKDALAITGKGKIIRNFPMIPGIDFAGTVRTSEDPRFHAGQEVLLTGWGVGENHWGGLAEQARVKGDWLVAMPQGLDARKAMIIGTAGFTAMLCVMALEDAGVRPQDGEIVVTGASGGVGSTAVALLHKLGYQVVAVSGRESTHEYLKSLGASRVLPRDEFAESRPLEKQVWAGAIDTVGDKVLAKVLAQMNYGGCVAACGLAGGFTLPTTVMPFILRNVRLQGVDSVMTPPERRAQAWQRLVADLPESFYTQAAKEISLSEAPNFAEAIINNQIQGRTLVKVN | soluble
9 | GPGSMVLSSPVITLRRMVHFSSTPTSLHSRSSTSPLDALVDEVSSFIPATFTSIPQISRQLPPELMERVCDPVCGGLRSLLSRYAERFESKMIGQVHVVRSRLRQRESAAPCRRANAGAEVGYSFAVPSSPSGNAAAAASKSNSVDVQAVFTELQQLFPSYLVPVKALWTTVPEAEEQQVRARVLDALRSPQHRAWLTFHEHPAHCASHSTSADEAELTHVLEHGYVQLRLNPAAGDDRAAAPMPQSPNTRMAGHEVQPYEWYRVARVLPTTATELLFSGELQEQATLLLPPGRDVWHVLLSAPALFELRYAAPTTVDSGQQARVPTLSAEGSSLAPVCVKYDATPPPSLCASVYVRFRLEERFVPPDMAGAREESILRELETLTAERAASACGLSSRQRRRKRKLQRQLAYLRNPTPYFDERVLAQHLFDLLPLRDGVHQSALLGSLPQPAVQAFPQNVTELLQARNDLFQLSDVRHGILVRRADAPKVAQRSIESVTGEEILLHIFSSYSLRSDPQEGTTISRSLPRLPRLVRERLFTMQDIIAEVLLLYPDKVEVLADRSPSISSLSLSSSPHTSEADERALRELRTVRGRRDFLVPFRFVGEWQAKLTEKYTKQQTKDAVKSMRARQRSESSHRRPARY | not soluble
10 | MTLHEVPTILHRCGDCPIRHRAVCARCDSEELATLEQIKYYRSYQAGQTVIWSGDKMDFVASVVTGIATLTQTMEDGRRQMVGLLLPSDFVGRPGRQTVAYDVTATTDLLMCCFRRKPFEEMMQKTPHVGQRLLEMTLDELDAAREWMLLLGRKTAREKIASLLAIIARRDAALKLRESNGPMTFDLPLTREEMADYLGLTLETVSRQVSALKRDGVIALEGKRHVIVTDFARLLEEAGDDSDGGLPV | not soluble
11 | MGSDKIHHHHHHMDYLDIGQAADNKYYSSKRTLPLAIMKENAKEYQPLKINTIKTCSCKENNLNCLTAKEWIKRQIGVWEFYYEKRDIRDKTVHPATFPISLAKQVIELFSHEGELVVDPFVGSGTTLVAARDSNRNAVGFDLQEKYIKLCAERLSTQRIVGNAQQVAIEEDARNISNYFNEESISLIFTSPPYANLLNRERKNKSRRNRKNNQLGKVEQYSQDPRDLGTLDVESYTKEMGDIFEKVKPALRTKGHCVINVPDMWWENKRIAIHVYLINEMTKRGYELRNIIIWDKRNLVNQIGIFGWPSNYITMGVTFEYLLDFWKP | not soluble
12 | MSEPSEKKQKVATSSLEQLKKAGTHVVADSGDFEAISKYEPQDSTTNPSLILAASKLEKYARFIDAAVEYGRKHGKTDHEKIENAMDKILVEFGTQILKVVPGRVSTEVDARLSFDKKATVKKALHIIKLYKDAGVPKERVLIKIASTWEGIQAARELEVKHGIHCNMTLLFSFTQAVACAEANVTLISPFVGRIMDFYKALSGKDYTAETDPGVLSVKKIYSYYKRHGYATEVMAASFRNLDELKALAGIDNMTLPLNLLEQLYESTDPIENKLNSESAKEEGVEKVSFINDEPHFRYVLNEDQMATEKLSDGIRKFSADIEALYKLVEEKMLEHHHH | soluble
13 | EPPDGKAISDGFNLLQELSAVNRENQLTPLGRQLARLPVDPRMGRMLLEAAKQGSLQEVLIVASAMSVQDVRERPPERQQAADQAHAQWKDAD | not soluble
14 | MVVVPHIDRQFLKDVEAVFTARARVNLPVPNPGLGTWVDRTTDTWFRFNHQLSVAIADILQRNFHYAWLTYQMILVVFKARWFFSSRHTLTVWTQFNLVARTLYRDDNSLE | not soluble
15 | MCNLTIHNIENYENDPQLRLIPWILWENLFQHFISANELSLMTLSYKEAIHIFLPGTKNMEQVRQLLCLYYAHYNRNAKQLWSDAHKKGIKSEVICFVAAITGCSSALDTLCLLLTSDEIVKVIQAENYQAFRLAAENGHLHVLNRLCELAPTEIMAMIQAENYHAFRLAAENGHLHVLNRLCELAPTEATAMIQAENYYAFRWAAVGRGHHNVINFLLDCPVMLAYAEIHEFEYGEKYVNPFIARHVNRLKEMHDAFKLSNPDGVFDLVTKSECLQGFYMLRNLIRRNDEVLLDDIRFLLSIPGIKALAPTATIPGDANELLRLALRLGNQGACALLLSIPSVLALTKANNYYINETGGRLDLRAVALEHHHHHH | soluble
16 | PGSMTVTQSQLELLIRNAFPEAEITVTSLVGDNNHYSIKVISSQFQGKSKLEQHRMIYKVLDGLNIHAIQIQTGCK | soluble
17 | MGSDKIHHHHHHMKKNILHIHGFNSSPLSLKAEQTRKYMAKNFPNVGFYCPQLATTPANAMSQLEQLIETHDSNAKWYLIGSSLGGYFAHYLAKKYDCLAVLVNPAITPYELLHDYIGEQVNPYTEEVYQVTEDHMQQLKALEQTAPTIDCTEKNNYLVMVQTGDEVLNYQQAVEKYQYCRLIVQEGGDHSFINFDNCLPTISDFFQLDNTKRINSR | not soluble
